Experimental data: PMC1891289, “Improvement of activity and stability of chloroperoxidase by chemical modification” (BMC Biotechnology, 2007)

How the values were obtained:
purified protein [1] = substrate: Oc1ccccc1; experiment: purified protein; type: biochemical, Leptoxyphium fumago; details: 50 mM sodium citrate pH 5.0, 0.2 mM H2O2, 2.4 mM 4-aminoantipyrine, 30 °C in methods (room temperature in text), apparent, native enzyme
purified protein [2] = substrate: CSc1ccccc1; experiment: purified protein; type: biochemical, Leptoxyphium fumago; details: 50 mM sodium citrate pH 5.0, 300 μM H2O2, room temperature, apparent, native enzyme

B1: Chloroperoxidase (CPO) (Leptoxyphium fumago) (protein)
chain: QEPGSGIGYPYDNNTLPYVAPGPTDSRAPCPALNALANHGYIPHDGRAISRETLQNAFLNHMGIANSVIELALTNAFVVCEYVTGSDCGDSLVNLTLLAEPHAFEHDHSFSRKDYKQGVANSNDFIDNRNFDAETFQTSLDVVAGKTHFDYADMNEIRLQRESLSNELDFPGWFTESKPIQNVESGFIFALVSDFNLPDNDENPLVRIDWWKYWFTNESFPYHLGWHPPSPAREIEFVTSASSAVLAASVTSTPSSLPSGAIGPGAEAVPLSFASTMTPFLLATNAPYYAQDPTLGPND
notes: not chemically modified
Which Km (purified protein [1]) does the source give for B1 here?
Its Km is 350 ± 10 µM.

What about the Km (purified protein [2]) of the same protein?
Its Km is 1640 ± 90 µM.
